Substitutions are numbered along the chain they refer to.
How the values were obtained:
Assay in all cases: pull-down; 15 μg GST-tagged τ131 on Glutathione Sepharose 4B; 300 nM τ138 or Bdp1, or 1 μM Brf1–TBP; 50 mM Tris pH 7.5, 150 mM NaCl, 2 mM DTT, 0.1% Tween20; 4 °C, 4 h
Conditions in all cases: both partners purified
[1] = target: T1, GST-tagged τ131 (1–580) D468K (S. cerevisiae, UniProt P33339 1-580, D468K)
T1 construct: τ131 (Tfc4) of S. cerevisiae TFIIIC, residues 1-580, point mutant; also called D468K mutant of τ131 (1–580); source: E. coli BL21 (DE3) Gold, purified (GST column, S200 SEC)
T1 sequence (looked up): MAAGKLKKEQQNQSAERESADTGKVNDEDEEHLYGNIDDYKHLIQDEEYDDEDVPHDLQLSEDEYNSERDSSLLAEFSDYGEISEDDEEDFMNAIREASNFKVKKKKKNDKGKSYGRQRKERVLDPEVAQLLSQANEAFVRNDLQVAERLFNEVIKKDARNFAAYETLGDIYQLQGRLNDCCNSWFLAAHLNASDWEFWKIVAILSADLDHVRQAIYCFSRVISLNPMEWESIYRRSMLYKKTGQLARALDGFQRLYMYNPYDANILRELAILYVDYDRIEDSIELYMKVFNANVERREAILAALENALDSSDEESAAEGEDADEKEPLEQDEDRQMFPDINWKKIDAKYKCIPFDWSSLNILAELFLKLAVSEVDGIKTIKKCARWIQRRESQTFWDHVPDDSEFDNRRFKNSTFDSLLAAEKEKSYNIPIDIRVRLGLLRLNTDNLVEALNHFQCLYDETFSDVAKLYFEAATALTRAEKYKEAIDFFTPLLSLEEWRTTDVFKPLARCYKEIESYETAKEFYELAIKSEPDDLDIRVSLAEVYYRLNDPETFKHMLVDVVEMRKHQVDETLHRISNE

[2] = target: T2, GST-tagged τ131 (1–580), wild type (S. cerevisiae, UniProt P33339 1-580)
T2 construct: τ131 (Tfc4) of S. cerevisiae TFIIIC, residues 1-580 (extended N terminus and TPR array); also called GST-τ131 (1–580); longer τ131 protein; source: E. coli BL21 (DE3) Gold, purified (GST column, S200 SEC)
T2 sequence (looked up): T1 sequence (looked up) with K468D

[3] = target: T3, GST-tagged τ131 (1–580) L469K (S. cerevisiae, UniProt P33339 1-580, L469K)
T3 construct: τ131 (Tfc4) of S. cerevisiae TFIIIC, residues 1-580, point mutant; also called L469K mutant of τ131 (1–580); source: E. coli BL21 (DE3) Gold, purified (GST column, S200 SEC)
T3 sequence (looked up): T1 sequence (looked up) with K468D, L469K

Measured: binding result

B1: Brf1–TBP fusion protein Brf1 (1–382)-TBP (61–240)-Brf1 (439–596) (other, UniProt P29056 1-382, looked up)
chain: MPVCKNCHGTEFERDLSNANNDLVCKACGVVSEDNPIVSEVTFGETSAGAAVVQGSFIGAGQSHAAFGGSSALESREATLNNARRKLRAVSYALHIPEYITDAAFQWYKLALANNFVQGRRSQNVIASCLYVACRKEKTHHMLIDFSSRLQVSVYSIGATFLKMVKKLHITELPLADPSLFIQHFAEKLDLADKKIKVVKDAVKLAQRMSKDWMFEGRRPAGIAGACILLACRMNNLRRTHTEIVAVSHVAEETLQQRLNEFKNTKAAKLSVQKFRENDVEDGEARPPSFVKNRKKERKIKDSLDKEEMFQTSEEALNKNPILTQVLGEQELSSKEVLFYLKQFSERRARVVERIKATNGIDGENIYHEGSENETRKRKLSESGIVPTLQNIVATVTLGCRLDLKTVALHARNAEYNPKRFAAVIMRIREPKTTALIFASGKMVVTGAKSEDDSKLASRKYARIIQKIGFAAKFTDFKIQNIVGSCDVKFPIRLEGLAFSHGTFSSYEPELFPGLIYRMVKPKIVLLIFVSGKIVLTGAKQREEIYQAFEAIYPVLSEFRKMPRNLHLLPTTDTYLSKVSDDPDNLEDVDDEELNAHLLNEEASKLKERIWIGLNADFLLEQESKRLKQEADIATGNTSVKKKRTRRRNNTRSDEPTKTVDAAAAIGLMSDLQDKSGLHAALKAAEESGDFTTADSVKNMLQKASFSKKINYDAIDGLFR
notes: Brf1, subunit of TFIIIB, residues 1-382; TBP, subunit of TFIIIB, residues 61-240; Brf1, subunit of TFIIIB, residues 439-596; source: E. coli BL21 Star (DE3) pRARE, purified (Ni-NTA, HiTrap SP); not shown: His6, C-terminal, kept
binds: all assays above

Source: article PMC4490372, “Architecture of TFIIIC and its role in RNA polymerase III pre-initiation complex assembly” (Nature Communications, 2015)
